Laboratory results from publication PMC12747378, “FtsZ phosphorylation modulates tail-core binding to tune cell division in Bacillus subtilis” (PLOS One, 2025).
Values joined by “and” are separate entries in the source; they are usually repeats but may differ in a detail not shown here. Equal values may be shown once.

T1: FtsZ core (residues 1-315), wild type (Bacillus subtilis, UniProt P17865 1-315)
T1 construct: FtsZ of Bacillus subtilis, globular core, residues 1-315; The plasmid paragraph names 'full-length B. subtilis FtsZ and variants' in pET-28a (His6, TEV site); also called FtsZ Core WT; tailless core; source: E. coli One Shot BL21 Star (DE3), purified (TALON resin, eluted with AcTEV protease); not shown: His6, N-terminal, cleaved
T1 sequence (looked up): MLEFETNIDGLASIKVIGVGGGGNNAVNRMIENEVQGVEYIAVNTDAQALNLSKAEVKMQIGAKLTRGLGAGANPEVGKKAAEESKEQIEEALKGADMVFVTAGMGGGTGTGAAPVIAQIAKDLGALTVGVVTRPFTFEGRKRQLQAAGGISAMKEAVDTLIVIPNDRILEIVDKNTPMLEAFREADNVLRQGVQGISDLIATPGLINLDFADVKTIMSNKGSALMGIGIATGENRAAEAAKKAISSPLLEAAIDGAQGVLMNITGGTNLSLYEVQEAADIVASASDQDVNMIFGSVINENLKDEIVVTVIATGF

T2: FtsZ core (residues 1-315) (Bacillus subtilis, UniProt P17865 1-315)
T2 construct: FtsZ, Bacillus subtilis, globular core, residues 1-315; The printed purification is TALON resin with elution by AcTEV protease; also called FtsZ globular core; tailless core; source: E. coli BL21 Star (DE3), purified
T2 sequence (looked up): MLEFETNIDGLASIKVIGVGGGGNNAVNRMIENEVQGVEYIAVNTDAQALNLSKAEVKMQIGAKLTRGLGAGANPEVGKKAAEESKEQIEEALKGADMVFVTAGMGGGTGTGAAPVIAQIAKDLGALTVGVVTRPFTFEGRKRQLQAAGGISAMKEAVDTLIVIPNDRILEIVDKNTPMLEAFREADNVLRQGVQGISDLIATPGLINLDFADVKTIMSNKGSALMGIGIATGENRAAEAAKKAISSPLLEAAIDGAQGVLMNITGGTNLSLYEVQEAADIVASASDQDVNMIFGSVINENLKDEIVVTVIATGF

T3: FtsZ core (residues 1-315) D210A/D213A (Bacillus subtilis, UniProt P17865 1-315, D210A | D213A)
T3 construct: FtsZ, Bacillus subtilis, globular core, residues 1-315, D210A/D213A; see S1 Appendix; also called acidic patch mutant core; source: E. coli BL21 Star (DE3), purified
T3 sequence (looked up): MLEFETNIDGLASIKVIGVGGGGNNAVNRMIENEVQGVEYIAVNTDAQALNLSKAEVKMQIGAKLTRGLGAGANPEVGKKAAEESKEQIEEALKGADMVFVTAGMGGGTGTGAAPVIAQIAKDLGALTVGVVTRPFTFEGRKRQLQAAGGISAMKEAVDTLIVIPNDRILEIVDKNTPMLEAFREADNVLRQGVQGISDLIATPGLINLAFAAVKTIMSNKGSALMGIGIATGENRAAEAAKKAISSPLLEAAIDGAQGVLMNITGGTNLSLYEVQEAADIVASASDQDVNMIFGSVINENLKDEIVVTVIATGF

B1: Full-length FtsZ (wild type) (natural protein, Bacillus subtilis, UniProt P17865 1-382, looked up)
chain: MLEFETNIDGLASIKVIGVGGGGNNAVNRMIENEVQGVEYIAVNTDAQALNLSKAEVKMQIGAKLTRGLGAGANPEVGKKAAEESKEQIEEALKGADMVFVTAGMGGGTGTGAAPVIAQIAKDLGALTVGVVTRPFTFEGRKRQLQAAGGISAMKEAVDTLIVIPNDRILEIVDKNTPMLEAFREADNVLRQGVQGISDLIATPGLINLDFADVKTIMSNKGSALMGIGIATGENRAAEAAKKAISSPLLEAAIDGAQGVLMNITGGTNLSLYEVQEAADIVASASDQDVNMIFGSVINENLKDEIVVTVIATGFIEQEKDVTKPQRPSLNQSIKTHNQSVPKREPKREEPQQQNTVSRHTSQPADDTLDIPTFLRNRNKRG

Key:
[1] = molecular target: the molecule itself; experiment: cell-based or functional assay
[2] = molecular target: T1, FtsZ core (residues 1-315), wild type; experiment: ITC; 5 µM full-length FtsZ or FtsZ core in the cell, 50 µM FtsZ tail or MinCN in the syringe; TKEG buffer (50 mM Tris pH 8, 50 mM KCl, 1 mM EDTA, 5% glycerol), 25°C; 20 injections of 2 µL; each replicate fitted
[3] = molecular target: T2, FtsZ core (residues 1-315); experiment: ITC; full-length FtsZ or FtsZ core (5 µM) in the cell, FtsZ tail or MinCN (50 µM) in the syringe; TKEG buffer (50 mM Tris pH 8, 50 mM KCl, 1 mM EDTA, 5% glycerol), 25°C; one-site model; details: both partners purified
[4] = molecular target: B1; experiment: as above; details: both partners purified
[5] = molecular target: T2, FtsZ core (residues 1-315); experiment: ITC; displacement: pre-formed MinCN:Core complex (45 µM MinCN + 5 µM Core, 9:1) in the cell, Tail titrated to 10 µM final; TKEG buffer, 25°C; details: both partners purified
[6] = molecular target: T3, FtsZ core (residues 1-315) D210A/D213A; experiment: ITC; full-length FtsZ or FtsZ core (5 µM) in the cell, FtsZ tail or MinCN (50 µM) in the syringe; TKEG buffer (50 mM Tris pH 8, 50 mM KCl, 1 mM EDTA, 5% glycerol), 25°C; one-site model; details: both partners purified

Kd [3]	Kd [4] [nM]	Binder	critical concentration for polymerization (x-intercept of malachite green GTPase rate against FtsZ concentration) [1] [µM]	specific GTPase activity above the critical concentration (malachite green assay) [1] [GTP/min/FtsZ]	also measured
–	–	B1	0.51	4	–
–	–	Full-length FtsZ S333E (natural protein, Bacillus subtilis, UniProt P17865 1-382, looked up) MLEFETNIDGLASIKVIGVGGGGNNAVNRMIENEVQGVEYIAVNTDAQALNLSKAEVKMQIGAKLTRGLGAGANPEVGKKAAEESKEQIEEALKGADMVFVTAGMGGGTGTGAAPVIAQIAKDLGALTVGVVTRPFTFEGRKRQLQAAGGISAMKEAVDTLIVIPNDRILEIVDKNTPMLEAFREADNVLRQGVQGISDLIATPGLINLDFADVKTIMSNKGSALMGIGIATGENRAAEAAKKAISSPLLEAAIDGAQGVLMNITGGTNLSLYEVQEAADIVASASDQDVNMIFGSVINENLKDEIVVTVIATGFIEQEKDVTKPQRPSLNQEIKTHNQSVPKREPKREEPQQQNTVSRHTSQPADDTLDIPTFLRNRNKRG	0.37	5.1	–
–	–	Full-length FtsZ S333A (natural protein, Bacillus subtilis, UniProt P17865 1-382, looked up) MLEFETNIDGLASIKVIGVGGGGNNAVNRMIENEVQGVEYIAVNTDAQALNLSKAEVKMQIGAKLTRGLGAGANPEVGKKAAEESKEQIEEALKGADMVFVTAGMGGGTGTGAAPVIAQIAKDLGALTVGVVTRPFTFEGRKRQLQAAGGISAMKEAVDTLIVIPNDRILEIVDKNTPMLEAFREADNVLRQGVQGISDLIATPGLINLDFADVKTIMSNKGSALMGIGIATGENRAAEAAKKAISSPLLEAAIDGAQGVLMNITGGTNLSLYEVQEAADIVASASDQDVNMIFGSVINENLKDEIVVTVIATGFIEQEKDVTKPQRPSLNQAIKTHNQSVPKREPKREEPQQQNTVSRHTSQPADDTLDIPTFLRNRNKRG	0.41	4.7	–
495 nM and 405 nM	> 2000	MinCN, the 92aa N-terminal domain of MinC (domain or fragment, Bacillus subtilis, UniProt Q01463 1-92, looked up, MinC, Bacillus subtilis, N-terminal domain, 92 aa; amplified from B. subtilis genomic DNA; Cloned in pGEX-6P-1 with a PreScission site; cleavage of GST not described; source: E. coli BL21 Star (DE3), purified) MKTKKQQYVTIKGTKNGLTLHLDDACSFDELLDGLQNMLSIEQYTDGKGQKISVHVKLGNRFLYKEQEEQLTELIASKKDLFVHSIDSEVIT	–	–	Kd [2]: 418 nM and 447 nM and 621 nM; stoichiometry N [2]: 1.11 and 0.829 and 1.07; stoichiometry N [3]: 1 ± 0.15
228 ± 24 nM	> 2000	FtsZ tail (residues 316-382) (domain or fragment, Bacillus subtilis, UniProt P17865 316-382, looked up, FtsZ, Bacillus subtilis, C-terminal tail, residues 316-382 (67 aa); Cloned in pGEX-6P-3 with a PreScission site; also called C-terminal tail; CTT; source: E. coli BL21 Star (DE3), purified; 15N-labelled in M9 minimal medium for NMR) IEQEKDVTKPQRPSLNQSIKTHNQSVPKREPKREEPQQQNTVSRHTSQPADDTLDIPTFLRNRNKRG	–	–	stoichiometry N [5]: 1; Kd [6]: 501 ± 64 nM
